Laboratory results as given in patent US20230390362A1, “USE OF TRIGONAL AGONIST HAVING ACTIVITIES TO ALL OF GLUCAGON, GLP-1, AND GIP RECEPTORS IN TREATMENT OF SEQUELAE FOLLOWING RESPIRATORY INFECTIOUS DISEASES” (HANMI PHARM. CO., LTD., priority 2020, published 2023).
Positions of bridges follow the written chain, without caps; N, C: chain ends. Non-standard residues stand in square brackets, D forms with d. No end group written: not given here. *: point of attachment. Acetyl(2-(4-imidazolyl)) = O=C(Cc1c[nH]cn1)*; Aib = CC(C)(N)C(=O)O

T1: human GIP receptor (human, UniProt P48546 22-466)
T1 sequence (looked up): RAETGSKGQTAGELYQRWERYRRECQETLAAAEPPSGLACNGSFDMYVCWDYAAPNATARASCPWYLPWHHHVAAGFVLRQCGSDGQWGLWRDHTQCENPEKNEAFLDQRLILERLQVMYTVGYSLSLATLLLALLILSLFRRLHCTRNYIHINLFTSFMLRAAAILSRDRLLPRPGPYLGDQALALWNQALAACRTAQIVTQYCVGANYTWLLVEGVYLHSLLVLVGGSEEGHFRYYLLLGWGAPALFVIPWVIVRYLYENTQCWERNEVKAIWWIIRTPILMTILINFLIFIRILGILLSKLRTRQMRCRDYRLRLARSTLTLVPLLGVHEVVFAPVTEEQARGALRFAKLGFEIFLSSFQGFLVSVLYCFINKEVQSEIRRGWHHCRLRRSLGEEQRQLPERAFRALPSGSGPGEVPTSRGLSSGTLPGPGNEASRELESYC


Assays:
Experiment in all cases: cell-based or functional assay
human GCG receptor = human GCG receptor (human, UniProt P47871 26-477)
Sequence of human GCG receptor (P47871 26-477): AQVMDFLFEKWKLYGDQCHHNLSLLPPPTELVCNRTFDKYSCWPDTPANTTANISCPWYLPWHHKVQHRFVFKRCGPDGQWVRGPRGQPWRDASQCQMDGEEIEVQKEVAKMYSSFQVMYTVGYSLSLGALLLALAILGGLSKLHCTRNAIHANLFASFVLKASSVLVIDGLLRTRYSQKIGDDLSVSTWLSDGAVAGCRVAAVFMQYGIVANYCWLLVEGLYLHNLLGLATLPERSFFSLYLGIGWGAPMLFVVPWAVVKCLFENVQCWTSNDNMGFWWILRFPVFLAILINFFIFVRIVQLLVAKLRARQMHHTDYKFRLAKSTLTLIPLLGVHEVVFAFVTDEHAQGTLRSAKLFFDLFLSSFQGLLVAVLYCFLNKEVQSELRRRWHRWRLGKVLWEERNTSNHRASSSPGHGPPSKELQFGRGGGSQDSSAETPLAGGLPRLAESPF

human GLP-1 receptor = human GLP-1 receptor (human, UniProt P43220 24-463)
human GIP receptor = target: T1, human GIP receptor

| Binder | In vitro activity relative to native peptide (%), vs. Glucagon (cAMP EC50) (human GCG receptor) | In vitro activity relative to native peptide (%), vs. GLP-1 (cAMP EC50) (human GLP-1 receptor) | In vitro activity relative to native peptide (%), vs. GIP (cAMP EC50) (human GIP receptor) |
| --- | --- | --- | --- |
| {Acetyl(2-(4-imidazolyl))}-[Aib]QGTFTSDYSICMDEKHQKDFVNWLLNTK (bridge 15-19) [trigonal agonist of SEQ ID NO: 59] | < 0.1% | 40.3% | 4% |
| {Acetyl(2-(4-imidazolyl))}-[Aib]QGTFTSDYSIAMDEKHCKDFVNWLLNTK (bridge 15-19) [trigonal agonist of SEQ ID NO: 60] | < 0.1% | 106% | 8.2% |
| {Acetyl(2-(4-imidazolyl))}-[Aib]QGTFTSDYSIAMDEIACKDFVNWLLNTK (bridge 15-19) [trigonal agonist of SEQ ID NO: 61] | < 0.1% | 59.8% | 2.8% |
| {Acetyl(2-(4-imidazolyl))}-[Aib]QGTFTSDKSKYLDERAAQDFVQWLLDGGPSSGAPPPS [trigonal agonist of SEQ ID NO: 62] | < 0.1% | 5.2% | < 0.1% |
| {Acetyl(2-(4-imidazolyl))}-[Aib]QGTFTSDCSKYLDERAAQDFVQWLLDGGPSSGAPPPS [trigonal agonist of SEQ ID NO: 63] | < 0.1% | 15.3% | < 0.1% |
| Y[Aib]QGTFTSDYSKYLDECAAKEFVQWLLDHHPSSGQPPPS (bridge 16-20) [trigonal agonist of SEQ ID NO: 64] | 60.1% | 64.6% | 92.9% |
| H[Aib]QGTFTSDVSKYLDGQAAKEFVAWLLKGC [trigonal agonist of SEQ ID NO: 7] | < 0.1% | 13.7% | < 0.1% |
| H[Aib]QGTFTSDYSKCLDEKRAKEFVQWLLDHHPSSGQPPPS (bridge 16-20) [trigonal agonist of SEQ ID NO: 65] | 25.2% | 95.4% | 11.6% |
| Y[Aib]QGTFTSDYSKYLDECRAKDFVQWLLDHHPSSGQPPPS (bridge 16-20) [trigonal agonist of SEQ ID NO: 66] | 172% | 15.8% | 17.2% |
| Y[Aib]QGTFTSDYSKYLDECAAKDFVQWLLDHHPSSGQPPPS (bridge 16-20) [trigonal agonist of SEQ ID NO: 67] | 46.2% | 28.5% | 39.8% |
| Y[Aib]QGTFTSDYSKCLDEKAAKEFVQWLLDHHPSSGQPPPS (bridge 16-20) [trigonal agonist of SEQ ID NO: 68] | 8.8% | 27.9% | 107% |
| Y[Aib]QGTFTSDYSKCLDERAAKEFVQWLLDHHPSSGQPPPS (bridge 16-20) [trigonal agonist of SEQ ID NO: 69] | 9.6% | 24.3% | 62.8% |
| Y[Aib]QGTFTSDYSKCLDEKRAKDFVQWLLDHHPSSGQPPPS (bridge 16-20) [trigonal agonist of SEQ ID NO: 70] | 71.3% | 15.1% | 64.4% |
| Y[Aib]QGTFTSDYSKYLDERACKDFVQWLLDHHPSSGQPPPS (bridge 16-20) [trigonal agonist of SEQ ID NO: 71] | 12.7% | 90.1% | 94.7% |
| Y[Aib]QGTFTSDCSKYLDERAAKDFVQWLLDHHPSSGQPPPS (bridge 16-20) [trigonal agonist of SEQ ID NO: 72] | 1% | 11.5% | 1.6% |
| {Acetyl(2-(4-imidazolyl))}-[Aib]QGTFTSDYSKYLDECRAKEFVQWLLDHHPSSGQPPPS (bridge 15-19) [trigonal agonist of SEQ ID NO: 73] | 5.4% | 22.6% | 3% |
| {Acetyl(2-(4-imidazolyl))}-[Aib]QGTFTSDYSKCLDEKRAKEFVQWLLDHHPSSGQPPPS (bridge 15-19) [trigonal agonist of SEQ ID NO: 74] | 0.9% | 12.9% | 1% |
| H[Aib]QGTFTSDVSKYLDGQAAQEFVAWLLKGC [trigonal agonist of SEQ ID NO: 8] | 0.1% | 14.2% | < 0.1% |
| Y[Aib]QGTFTSDYSKYLDEKAAKEFVQWLLDHHPSSGQPPPSC (bridge 16-20) [trigonal agonist of SEQ ID NO: 75] | 8.5% | 35.1% | 18% |
| Y[Aib]QGTFTSDYSKYLDEKRAKDFVQWLLDHHPSSGQPPPSC (bridge 16-20) [trigonal agonist of SEQ ID NO: 76] | 47.6% | 10.3% | 11.7% |
| Y[Aib]QGTFTSDYSKYLDEKAAKDFVQWLLDHHPSSGQPPPSC (bridge 16-20) [trigonal agonist of SEQ ID NO: 77] | 12.2% | 38.7% | 35.5% |
| H[Aib]EGTFTSDYSIAMDEIHQKDFVNWLLAQKC (bridge 16-20) [trigonal agonist of SEQ ID NO: 79] | 4.9% | 41.5% | 1.4% |
| H[Aib]EGTFTSDYSIAMDEIHQKDFVDWLLAEKC (bridge 16-20) [trigonal agonist of SEQ ID NO: 80] | 0% | 8.1% | 0.1% |
| {Acetyl(2-(4-imidazolyl))}-[Aib]QGTFTSDYSKYLDEKRQKEFVQWLLNTC (bridge 15-19) [trigonal agonist of SEQ ID NO: 81] | 0.3% | 7.8% | < 0.1% |
| {Acetyl(2-(4-imidazolyl))}-[Aib]QGTFTSDYSKYLDEKRQKEFVQWLLDTC (bridge 15-19) [trigonal agonist of SEQ ID NO: 82] | 1.1% | 9.5% | < 0.1% |
| {Acetyl(2-(4-imidazolyl))}-[Aib]EGTFTSDYSIAMDEIHQKDFVNWLLAQC (bridge 15-19) [trigonal agonist of SEQ ID NO: 83] | 1.3% | 47.3% | 0.4% |
| {Acetyl(2-(4-imidazolyl))}-[Aib]EGTFTSDYSIAMDEIHQKDFVDWLLAEC (bridge 15-19) [trigonal agonist of SEQ ID NO: 84] | < 0.1% | 4.2% | < 0.1% |
| H[Aib]QGTFTSDVSKYLDGQAAQEFVAWLLAGC [trigonal agonist of SEQ ID NO: 9] | 0.13% | 32.1% | < 0.1% |
